Source: patent US20060218667A1

Each substance was assayed against porcine trypsin (porcine) (UniProt P00761) (assay: cell-based or functional assay).
UniProt P00761, sequence (P00761 9-231 limits assumed): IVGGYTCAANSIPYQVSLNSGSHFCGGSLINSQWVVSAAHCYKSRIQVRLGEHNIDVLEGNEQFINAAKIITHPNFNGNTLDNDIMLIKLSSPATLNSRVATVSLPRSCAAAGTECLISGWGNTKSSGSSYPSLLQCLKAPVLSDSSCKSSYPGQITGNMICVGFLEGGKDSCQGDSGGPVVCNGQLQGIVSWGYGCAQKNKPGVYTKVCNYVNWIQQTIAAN

KIU/mg Protein (specific activity) (KIU/mg protein) | Substance
7160 | r-Aprotinin-V (aprotinin variant with Met 52 replaced by valine)
7220 | r-Aprotinin-Q (aprotinin variant with Met 52 replaced by glutamine)
7150 | r-Aprotinin-L (aprotinin variant with Met 52 replaced by leucine)
